The source of these data is patent US20150190466.

In the data set the target is T1, N-terminus tagged ILDR2.
T1 sequence (Q71H61 whole entry, species assumed, looked up): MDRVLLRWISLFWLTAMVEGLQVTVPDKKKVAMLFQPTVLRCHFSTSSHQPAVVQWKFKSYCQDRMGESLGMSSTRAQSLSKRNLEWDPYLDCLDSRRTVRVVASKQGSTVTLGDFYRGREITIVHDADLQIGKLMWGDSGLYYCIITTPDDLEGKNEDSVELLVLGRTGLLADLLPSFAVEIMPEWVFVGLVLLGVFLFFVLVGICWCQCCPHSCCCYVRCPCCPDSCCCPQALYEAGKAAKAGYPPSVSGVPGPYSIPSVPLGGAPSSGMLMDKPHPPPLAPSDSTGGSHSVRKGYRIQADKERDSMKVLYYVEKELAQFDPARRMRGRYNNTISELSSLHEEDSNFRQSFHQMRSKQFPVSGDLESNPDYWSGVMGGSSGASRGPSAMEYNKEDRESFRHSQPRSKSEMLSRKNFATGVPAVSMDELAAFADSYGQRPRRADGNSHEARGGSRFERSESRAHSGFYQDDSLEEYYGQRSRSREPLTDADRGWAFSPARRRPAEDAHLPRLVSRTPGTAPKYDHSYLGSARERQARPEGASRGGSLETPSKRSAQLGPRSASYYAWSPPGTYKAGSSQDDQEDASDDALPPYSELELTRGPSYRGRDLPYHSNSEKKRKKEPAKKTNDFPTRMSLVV

B1: V5-tagged PERK (protein)
chain: VAPARSLLAPASETVFGLGAAAAPTSAARVPAVATAEVTVEDAEALPAAAGEPESRATEPDDDVELRPRGRSLVIISTLDGRIAALDAENDGKKQWDLDVGSGSLVSSSLSKPEVFGNKMIIPSLDGDLFQWDRDRESMEAVPFTVESLLESSYKFGDDVVLVGGKSLITYGLSAYSGKLRYICSALGCRRWDSDEMEEEEDILLLQRTQKTVRAVGPRSGSEKWNFSVGHFELRYIPDMETRAGFIESTFKPGGNKEDSKIISDVEEQEATMLDTVIKVSVADWKVMAFSRKGGRLEWEYQFCTPIASAWLVRDGKVIPISLFDDTSYTASEEALGDEEDIVEAARGATENSVYLGMYRGQLYLQSSVRVSEKFPTSPKALESVNGENAIIPLPTIKWKPLIHSPSRTPVLVGSDEFDKCLSNDKYSHEEYSNGALSILQYPYDNGYYLPYYKRERNKRSTQITVRFLDSPHYSKNIRKKDPILLLHWWKEIFGTILLCIVATTFIVRRLFHPQPHRQRKESETQCQTESKYDSVSADVSDNSWNDMKYSGYVSRYLTDFEPIQCMGRGGFGVVFEAKNKVDDCNYAIKRIRLPNRELAREKVMREVKALAKLEHPGIVRYFNAWLETPPEKWQEEMDEIWLKDESTDWPLSSPSPMDAPSVKIRRMDPFSTKEQIEVIAPSPERSRSFSVGISCGQTSSSESQFSPLEFSGTDCGDNSDSADAAYNLQDSCLTDCEDVEDGTVDGNDEGHSFELCPSEASPYTRSREGTSSSIVFEDSGCGNASSKEEPRGNRLHDGNHYVNKLTDLKCSSSRSSSEATTLSTSPTRPTTLSLDFTKNTVGQLQPSSPKVYLYIQMQLCRKENLKDWMNRRCSLEDREHGVCLHIFLQIAEAVEFLHSKGLMHRDLKPSNIFFTMDDVVKVGDFGLVTAMDQDEEEQTVLTPMPAYATHTGQVGTKLYMSPEQIHGNNYSHKVDIFSLGLILFELLYPFSTQMERVRILTDVRNLKFPLLFTQKYPQEHMMVQDMLSPSPTERPEATDIIENAIFENLEFPGKTVLRQRSRSMSSSGTKHSRQPSCSYSPLPGN
Turning to B1, the “cleavage of ILDR2 (western blot of ILDR2 fragments after co-transfection)” value is given as “N-terminus-tagged ILDR2 was also decreased by PERK, but cleaved ILDR2 was not detected”.
